# Measurements: the DeepSol protein solubility set
# Test: soluble on expression in E. coli; label from the status in PepcDB or PDB records
row,Sequence,soluble on expression in E. coli
1,EPLRVLELYSGVGGMHHALRESCIPAQVVAAIDVNTVANEVYKYNFPHTQLLAKTIEGITLEEFDRLSFDMILMSPPCQPFTRIGRQGDMTDSRTNSFLHILDILPRLQKLPKYILLENVKGFEVSSTRDLLIQTIENCGFQYQEFLLSPTSLGIPNSRLRYFLIAKLQSEPLPFQAPGQVLMEFPKIEIHRKNQQDSDLSVKMLKDFLEDDTDVNQYLLPPKSLLRYALLLDIVQPTCRRSVCFTKGYGSYIEGTGSVLQTAEDVQVENIYKSLTNLSQEEQITKLLILKLRYFTPKEIANLLGFPPEFGFPEKITVKQRYRLLGNSLNVHVVAKLIKILYE,soluble
2,MAGQTLKGPWNNLERLAENTGEFQEVVRAFYDTLDAARSSIRVVRVERVSHPLLQQQYELYRERLLQRCERRPVEQVLYHGTTAPAVPDICAHGFNRSFCGRNATVYGKGVYFAKRASLSVQDRYSPPNADGHKAVFVARVLTGDYGQGRRGLRAPPLRGPGHVLLRYDSAMDCICQPSIFVIFHDTQALPTHLITCEHVPRASPDDPSGAHHHHHH,soluble
3,MEEAPFYRDTWVEVDLDAIYNNVTHIKEFIPSDVEIFAVVKGNAYGHDYVPVAKIALEAGATRLAVAFLDEALVLRRAGITAPILVLGPSPPRDINVAAENDVALTVFQKEWVDEAIKLWDGSSTMKYHINFDSGMGRIGIRERKELKGFLKSLEGAPFLELEGVYTHFATADEVETSYFDKQYNTFLEQLSWLKEFGVDPKFVHTANSAATLRFQGITFNAVRIGIAMYGLSPSVEIRPFLPFKLEPALSLHTKVAHIKQVIKGDGISYNVTYRTKTEEWIATVAIGYADGWLRRLQGFEVLVNGKRVPIVGRVTMDQFMIHLPCEVPLGTKVTLIGRQGDEYISATEVAEYSGTINYEIITTISFRVPRIFIRNGKVVEVINYLNDILEENLYFQ,soluble
4,MTVIQNIPNSLCKGLNTFSKNYLQNCKRCLTFFYELCGIICKKIEIMKGYERATKEEINDRLRIEENCHAQVERIIYIRHLCNLNLEEAADVTNLSISTLSRYENEVTKCSVQSLITIYYHYQKYLYEQHIPFDKNLFLIDMNSFHN,not soluble
5,MGSDKIHHHHHHMLLGRTANGLYWMNRYIERAENMARLVDAGLRMALTRTQNASEEWNSVLLSAGSDVAFKQKYSDYTAADVADFLLRDTSNPSSTMSSIETARNNARMVRTALTRETWESINEAWMSLKRMLARPIDERDLPSVLDAIKRETALIRGSFYGTMLRNEIFDFSQLGTYVERADNTARILDVKYYVLLPSISWVGSTLDNYQWESILRSVSAHRSYRWVYDADYKPTNIADYLILNVRMPRSLTFCYRFLSEHLKFLSDDYGERHACHATAEKTQAMLRAGSIKDIFDAGLHEFLAGFIRDNTRLGDEIAQDYRFY,not soluble
6,MGGSHHHHHHGMASALYAKGGKGSAVPSDSQAREKLALYVYEYLLHIGAQKSAQTFLSEIRWEKNITLGEPPGFLHSWWCVFWDLYCAAPDRREACEHSGEAKAFQDYSAAAAPSPVMGSMAPGDTMAAGSMAAGFFQGPPGSQPSPHNPNAPMMGPHGQPFMSPRFPGGPRPTLRMPSQPPAGLPGSQPLLPGAMEPSPRAQGHPSMGGPMQRVTPPRGMASVGPQSYGGGMRPPPNSLAGPGLPAMNMGPGVRGPWASPSGNSIPYSSSSPGSYTGPPGGGGPPGTPIMPSPGDSTNSSENMYTIMNPIGQGAGRANFPLGPGPEGPMAAMSAMEPHHVNGSLGSGDMDGLPKSSPGAVAGLSNAPGTPRDDGEMAAAGTFLHPFPSESYSPGMTMSV,not soluble
7,MHHHHHHSSGVDLGTENLYFQSNAMKIDYLTLFPEMFDGVLNHSIMKRAQENNKLQINTVNFRDYAINKHNQVDDYPYGGGQGMVLKPEPVFNAMEDLDVTEQARVILMCPQGEPFSHQKAVELSKADHIVFICGHYEGYDERIRTHLVTDEISMGDYVLTGGELPAMTMTDAIVRLIPGVLGNEQSHQDDSFSDGLLEFPQYTRPREFKGLTVPDVLLSGNHANIDAWRHEQKLIRTYNKRPDLIEKYPLTNADKQILERYKIGLKKG,soluble
8,GMTESDRDQEASMREVVIVKSTPQRGKFNAFAELVGKLVSETRDFPGCLGAYLMLAPERNEQVVMHIWETPDALEAYLTWRADRGDFLEINEYLEVEQDFKTYQLA,soluble
9,MILKPENEKKLIIDVLKKFGVPEEDAKITADVFVDADLKGFTSHGIGRFPQYITALKLGNINPKPDIKIVKESPATAVIDGDLGLGQVVGKKAMELAIKKAKNVGVGVVATRNANHFGIAGYYSELAMNQDMIGITITNTEPAMAPFGGKEKILGTNPIAIAFKGNKYKFSLDMATASIARGKILEALRKKIKIPEGCAVDKDGKPTTDPAKALEGCILPFGGPKGYGLALAIEMLSAIGGAEVGTKVKGTANPEERCTKGDLFIAINPEFFMGKEEFKRKVDELLDEIKNSEPAEGFEILIPGEIEERNKMKRKDGFEIDKNLYNQLKEICNELGLNIEDYIE,soluble
10,MNVTRKKGPLYLQIKNIIRDRILHGVYAIHTNIPSEPQLEEEFKVSKITVRNAIKELAQEGYLEKKSGKGTKVIRNTSATKLSKGKKFTEVLVEEGYKVQKKLLKAEIVHNEEGTVPFRLFGKESFRIERLYTLNDAPYIHYTHYFSAHMASTDLSDFDLQSLYDLVEDRGIHLENFRDEFAVGLAPSFVAEALGEKEGTALLKRMRYSYDEVGEVIEYSEGYYNTEMQHYVVNYDV,not soluble
11,MSKLVVIGGGPAGYVAAITAAQNGKNVTLIDEADLGGTCLNVGCMPTKSLLESAEVHDIVRKSNHYGVTLNNGSISIDWKQMQVRKSQIVTQLVQGIQYLMKKNKIKVIQGKAKFETDHRVRVTYGDKEIVVDGEQFIIATGSEPTELPFAPFDGKWILNSTHAMSLKNIPKSLLIVGGGVIGCEFASIYSRLGTKVTIVEMAPQLLPGEDEDIAHILRGKLENDGVKIFTGATLKGLNSYKKQALFEYEGGIQEVNPEFVLVSVGRKPRVQQLNLEKAGIQYSNKGISVNEHMQTNVSHIYAAGDVIGGIQLAHVAFHEGTTAALYASGEDVKVNYHAVPRCIYTAPEIASVGLTEKDAKEQYGDIQIGEFPFTANGKALIIGEQTGKVKVIVEPKYQEIVGISIIGPRATELIGQGTVMIHTEVTADIMRDYIAAHPTLSESIHEALLQAVGHAVHA,not soluble
12,TKDFAFDLNVNMAHNVSKVKELAPEENVNYMFFNGDGNFPVKVGTRAGHKLGEIYATSLYKRNENGDIIVNENGLPMTVTNESEYVNKPIGNIQPKLTMSVSPTFTYKGITLSALFDMKFGGDIFSYSEMLATGNGLAKRTLNRGEENNYMMVFPGVTESGEVNTKQVSASEYYGALQAEDFIYDASFIKLKELSIGYSFPSSMLKKTPVNSLNVSFVARNLCYLMKHTPGTSPEGGYDTTMFSQAIDYASLPFTRTFGISINLGF,not soluble
13,VKIDNKTFQVNGRVLLDDLTEEFGIEFDDSEDIDTIGGWLQSRNTNLQKDDYVDTTYDRWVVSEIDNHQIIWVILNYEFNEARPTIGQSDEDEKSE,not soluble
14,MSILHMPLKIKDITIKNRIMMSPMCMYSASTDGMPNDWHIVHYATRAIGGVGLIMQEATAVESRGRITDHDLGIWNDEQVKELKKIVDICKANGAVMGIQLAHAGRKCNISYEDVVGPSPIKAGDRYKLPRELSVEEIKSIVKAFGEAAKRANLAGYDVVEIHAAHGYLIHEFLSPLSNKRKDEYGNSIENRARFLIEVIDEVRKNWPENKPIFVRVSADDYMEGGINIDMMVEYINMIKDKVDLIDVSSGGLLNVDINLYPGYQVKYAETIKKRCNIKTSAVGLITTQELAEEILSNERADLVALGRELLRNPYWVLHTYTSKEDWPKQYERAFKKHHHHHH,soluble
15,MKVEELAESISSYAVGILKEEGIEELFPPQAEAVEKVFSGKNLLLAMPTAAGKTLLAEMAMVREAIKGGKSLYVVPLRALAGEKYESFKKWEKIGLRIGISTGDYESRDEHLGDCDIIVTTSEKADSLIRNRASWIKAVSCLVVDEIHLLDSEKRGATLEILVTKMRRMNKALRVIGLSATAPNVTEIAEWLDADYYVSDWRPVPLVEGVLCEGTLELFDGAFSTSRRVKFEELVEECVAENGGVLVFESTRRGAEKTAVKLSAITAKYVENEGLEKAILEENEGEMSRKLAECVRKGAAFHHAGLLNGQRRVVEDAFRRGNIKVVVATPTLAAGVNLPARRVIVRSLYRFDGYSKRIKVSEYKQMAGRAGRPGMDERGEAIIIVGKRDREIAVKRYIFGEPERITSKLGVETHLRFHSLSIICDGYAKTLEELEDFFADTFFFKQNEISLSYELERVVRQLENWGMVVEAAHLAPTKLGSLVSRLYIDPLTGFIFHDVLSRMELSDIGALHLICRTPDMERLTVRKTDSWVEEEAFRLRKELSYYPSDFSVEYDWFLSEVKTALCLKDWIEEKDEDEICAKYGIAPGDLRRIVETAEWLSNAMNRIAEEVGNTSVSGLTERIKHGVKEELLELVRIRHIGRVRARKLYNAGIRNAEDIVRHREKVASLIGRGIAERVVEGISVKSLNPESAAALEHHHHHH,soluble
16,SSSTLGKLSNQVEETLPLLKKVPANYFHICSAILMGFSLSKSATQVSAIHMDSKVDDHLIRGTEKSRLEPATQLFQNTKKIRLEDTNQENFTRIEGTGTGSLSGKALGSVVYVKESDGLEMTDVE,soluble
17,MGSDKIHHHHHHENLYFQGMKIKVALLDKDKEYLDRLTGVFNTKYADKLEVYSFTDEKNAIESVKEYRIDVLIAEEDFNIDKSEFKRNCGLAYFTGTPGIELIKDEIAICKYQRVDVIFKQILGVYSDMAANVATISGENDKSSVVIFTSPCGGVGTSTVAAACAIAHANMGKKVFYLNIEQCGTTDVFFQAEGNATMSDVIYSLKSRKANLLLKLESCIKQSQEGVSYFSSTKVALDILEISYADIDTLIGNIQGMDNYDEIIVDLPFSLEIEKLKLLSKAWRIIVVNDGSQLSNYKFMRAYESVVLLEQNDDINIIRNMNMIYNKFSNKNSEMLSNISIKTIGGAPRYEHATVRQIIEALTKMEFFEEILQ,soluble
18,LLERVSAEAVTTTLHQVTRERMEDRCRGEYERSFLREFHKWIERVVGWLGKVFLQDGPARPASPEAGNTLRRWRCHVQRFFYRIYASLRIEELFSIVRDFPDSRPAIEDLKYCLERTDQRQQLLVSLKAALETRLLHPGVNTCDIITLYISAIKALRVLDPSMVILEVACEPIRRYLRTREDTVRQIVAGLTGDSDGTGDLAVELSKTDPASLETGQDSEDDSGEPEDWVPDPVDADPGKSSSKRRSSDIISLLVSIYGSKDLFINEYRSLLADRLLHQFSFSPEREIRNVELLKLRFGEAPMHFCEVMLKDMADSRRINANIREEDEKRPAEEQPPFGVYAVILSSEFWPPFKDEKLEVPEDIRAALEAYCKKYEQLKAMRTLSWKHTLGLVTMDVELADRTLSVAVTPVQAVILLYFQDQASWTLEELSKAVKMPVALLRRRMSVWLQQGVLREEPPGTFSVIEEERPQDRDNMVLIDSDDESDSGMASQADQKEEELLLFWTYIQAMLTNLESLSLDRIYNMLRMFVVTGPALAEIDLQELQGYLQKKVRDQQLVYSAGVYRLPKNCS,soluble
19,MSLNKLAFLFPLLLAPGVAHAEPPQGVEFLHWWTSDGEQQALQTLKAQLKRHDIELLQSPVLGGGGDSAMTVLQARALAGNPPSFAQIEGPSIKAWDAIGILHNVNAVADEQRWDEVLYPLSIEINKTQNGYIALPLTLHRLNWLWVNHKLLKQLNLSAPKNWQEMFAAMELAEQNGIVPIAVGEQPWQVAQLFENLVISTGGVEFYTNAMVKLERDSIDSETLRQALTQFRRLSLLIDNQLPDSKWDTATQALADGQALFQIGGDWILGELLANQVSVPQEVGCYPTPDSDGVFLYNMDSLVFMSSKSFSSEAAQQTASALADVEFQAKFNKVKGSIPVRTDIDISDFNPCQVQSYQDFHYGVKHNLAVPSMIDSMAVNPVAQQAINSEIFRFYRNPKMEPDELIKRIIAISQSGEGHHHHHH,soluble
